The values below come from US20250352611A1, “METHODS FOR TREATING CATARACTS USING POLYPEPTIDES” (REJUKON BIOPHARM INC., priority 2022, published 2025).

One experiment has as its target T1, γD-crystallin (Homo sapiens, UniProt P07320).
T1 construct: Wild-type human full-length γD-crystallin gene were inserted into pET14b vectors; made in house; host or cells: E. coli BL21 (DE3)
T1 sequence (P07320 1-174): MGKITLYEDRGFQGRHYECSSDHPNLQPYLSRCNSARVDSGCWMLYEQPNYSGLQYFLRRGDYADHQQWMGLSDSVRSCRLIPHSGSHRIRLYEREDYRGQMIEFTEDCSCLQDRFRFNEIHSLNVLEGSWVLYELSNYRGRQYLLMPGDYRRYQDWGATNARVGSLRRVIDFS
The experiment is described as follows: 1H-15N HSQC NMR of γD-crystallin with peptide. The experiment is classed as binding. More on the design: interaction with γD-crystallin from chemical shift difference (CSD): dose or concentration left out as unconfirmed. The protocol:
To evaluate whether a protein undergoes small or significant structural changes before and after adding polypeptides, ^1H-^15N HSQC spectroscopy is a useful tool and can be used as a “fingerprint” of the three-dimensional structure. […] Wild-type human full-length γD-crystallin gene were inserted into pET14b vectors. E. coli BL21 (DE3) cells were transformed with these vectors. For protein production, cells were grown at 37° C. to an absorbance at 600 nm of 0.6 and induced by the addition of 0.5 mM IPTG at 37° C. for 4 h. For the N15 labeling of the protein, the transformed E. coli BL21(DE3) cells were cultured and induced in M9 medium with NH4Cl as the only nitrogen source. […] Using final 300 uM human γD-crystallin at 25° C., the two-dimensional [^1H-^15N] heteronuclear single quantum coherence (HSQC) spectra were recorded to determine the domain interactions at the residue-specific level.
Chemical shift difference (CSD) was measured for γD-crystallin alone or with Champ-E(RJK001). […]
HSQC spectrums were acquired and analysis with ccpNMR, amide ^1H-^15N combined chemical shift differences were calculated using the equation Δδ=[(0.125ΔδN)^2+ΔδH^2]^1/2. […]
The N15 labeled protein was mix with the unlabeled peptide with the ratio of 1:0, 1:2. […] Amide ^1H-^15N combined chemical shift differences were calculated using the equation Δδ) [(0.125ΔδN)^2+ΔδH^2]. Intensity changes were calculated by I/I0. […]

Experiment [1] relates to crystallin protein aggregates from human cataract patients. In words: Re-dissolution of crystallin aggregates from patients with different degrees of cataract (ThT fluorescence). Conditions: LOCS II grades e.g. C1N2P0. The text has this:
DM: diabetes mellitus. lens opacity classification: C: cortex; N: nucleus; P: the posterior lens capsule.
Human lenses used in this study were obtained from unidentified patients undergoing extracapsular cataract surgery. The material had been classified as non-human discarded material. Preoperative clinical exam was used to classify the cataract as mixed cortical and nuclear using LOCS II four-point grading system. LOCS II four-point grading system is also commonly used in clinical settings. (Chylack LT Jr, Leske MC, McCarthy D, Khu P, Kashiwagi T, Sperduto R. Lens opacities classification system II (LOCS II). Arch Ophthalmol. 1989 July; 107(7):991-7. doi: 10.1001/archopht.1989.01070020053028. PMID: 2751471). We tested the crystallin concentrates of patients with different degrees of cataract one by one. […]

Another experiment concerns the target T2, G3BP1-GFP protein (Mus musculus, UniProt P97855).
T2 construct: Genes of full-length mouse G3BP1, G3BP1-eGFP; thrombin protease cleavage site (C); His6 (C); made in house; host or cells: Escherichia coli rosetta (DE3)
The experiment is described as follows: G3BP1-GFP phase separated droplet dissolution, confocal laser microscope. Type of experiment: biochemical. As to conditions: 60 uM polypeptide, 20 uM G3BP1-GFP, pH7.5, 40s after addition. How it is done: The prokaryotic expressed and purified G3BP1-GFP protein (pH7.5, 20 uM G3BP1-GFP) was induced to form phase separated droplets in vitro. Polypeptides Champ-E (RJK001), Champ-D (RJK002), Champ-K (RJK012) and Champ-Q (RJK005, […], SEQ ID NO: 34) (each of 60 uM) were added dropwise to the G3BP1-GFP droplets. The observation was performed continuously through a confocal laser microscope.
For G3BP1(FL)-eGFP, purified G3BP1(FL)-eGFP, Champ-E and its variants were changed were diluted to droplet buffer (50 mM Tris, pH 7.5, 150 mM NaCl) using SpinDesalt Column (smart). G3BP1(FL)-eGFP proteins were diluted to indicated concentrations and supplemented with PEG8000 with 1.25% final concentration for 10 min to induce phase separation as reported.

As to “TEPQEESEEEVEEPEERQQTPEVVPDDSGTFYDQTVSNDLE [RJK001, polypeptide with hydrophilic and hydrophobic segment, expressed in E. coli]”, the “1H-15N HSQC spectra of γD-crystallin prior to and after peptide incubation” value in the experiment with γD-crystallin (300 uM 15N γD-crystallin, molar ratio 1:2, 25° C.) is “significant chemical shifts”. The “interaction with γD-crystallin from chemical shift difference (CSD)” value with γD-crystallin (molar ratio γD-crystallin:RJK001 1:2) is listed as “interacted with the full-length wildtype γD-crystallin protein”. In experiment [1], the “depolymerization effect on crystallin concentrates of patients with different degrees of cataract” value was “good depolymerization effects”. In addition, the “dissolution of G3BP1-GFP phase separated droplets” value with G3BP1-GFP protein is “significantly dissolved the phase separated droplets”.
